# B1: plasmin (protein)
# chain: KVYLSECKTGNGKNYRGTMSKTKNGITCQKWSSTSPHRPRFSPATHPSEGLEENYCRNPDNDPQGPWCYTTDPEKRYDYCDILECEEECMHCSGENYDGKISKTMSGLECQAWDSQSPHAHGYIPSKFPNKNLKKNYCRNPDRELRPWCFTTDPNKRWELCDIPRCTTPPPSSGPTYQCLKGTGENYRGNVAVTVSGHTCQHWSAQTPHTHNRTPENFPCKNLDENYCRNPDGKRAPWCHTTNSQVRWEYCKIPSCDSSPVSTEQLAPTAPPELTPVVQDCYHGDGQSYRGTSSTTTTGKKCQSWSSMTPHRHQKTPENYPNAGLTMNYCRNPDADKGPWCFTTDPSVRWEYCNLKKCSGTEASVVAPPPVVLLPDVETPSEEDCMFGNGKGYRGKRATTVTGTPCQDWAAQEPHRHSIFTPETNPRAGLEKNYCRNPDGDVGGPWCYTTNPRKLYDYCDVPQCAAPSFDCGKPQVEPKKCPGRVVGGCVAHPHSWPWQVSLRTRFGMHFCGGTLISPEWVLTAAHCLEKSPRPSSYKVILGAHQEVNLEPHVQEIEVSRLFLEPTRKDIALLKLSSPAVITDKVIPACLPSPNYVVADRTECFITGWGETQGTFGAGLLKEAQLPVIENKVCNRYEFLNGRVQSTELCAGHLAGGTDSCQGDSGGPLVCFEKDKYILQGVTSWGLGCARPNKPGVYVRVSRFVTWIEGVMRNN
# B2: recombinant MMP7 (protein)
# chain: YSLFPNSPKWTSKVVTYRIVSYTRDLPHITVDRLVSKALNMWGKEIPLHFRKVVWGTADIMIGFARGAHGDSYPFDGPGNTLAHAFAPGTGLGGDAHFDEDERWTDGSSLGINFLYAATHELGHSLGMGHSSDPNAVMYPTYGNGDPQNFKLSQDDIKGIQKLYGKRSNSRKK
# B3: recombinant MMP1 (protein)
# chain: FVLTEGNPRWEQTHLTYRIENYTPDLPRADVDHAIEKAFQLWSNVTPLTFTKVSEGQADIMISFVRGDHRDNSPFDGPGGNLAHAFQPGPGIGGDAHFDEDERWTNNFREYNLHRVAAHELGHSLGLSHSTDIGALMYPSYTFSGDVQLAQDDIDGIQAIYGRSQNPVQ
# Tests used:
# [1] = target: T1, alternate substrate/reporter peptide eGvndneeGffsarKsRLVGEGC (second substrate RLVGEGC), unmodified
# T1 chain: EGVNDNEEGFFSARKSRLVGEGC
# [2] = target: T2, alternate substrate/reporter peptide eGvndneeGffsarKsRLVGEGC veiled with DMNPE
# T2 chain: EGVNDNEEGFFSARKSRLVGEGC
# [3] = target: T3, C1-NPs: fluorescein-conjugated MMP substrate peptide C1 (FAM-sk-PLGLEEA-GC) coupled to iron oxide nanoparticles (not fully specified)
# T3 chain: SKPLGLEEAGC
# [4] = target: T4, S2: Biotin-CGPVPLSLVMK(Cy7)eGvndneeGffsar-NH2
# T4 chain: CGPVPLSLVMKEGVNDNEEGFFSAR
Protein,proteolysis [1],proteolysis [2],proteolysis (fluorescence dequenching) [3],relative proteolysis (Cy7 signal after streptavidin depletion of uncleaved peptide) [4]
B1,proteolysis by plasmin,"reduced proteolysis by plasmin, which was recovered by UV exposure",–,–
B2,–,–,"significantly cleaved by MMP13, 7, 1, and 9",cleaved efficiently by MMP7 and MMP19
B3,–,–,"significantly cleaved by MMP13, 7, 1, and 9",–
